Measured values published in patent publication US20250320286A1.
pKd: −log10 of the molar value.

Target: 4U-3pE-beta-Amyloid
Experiment: SPR; 4U-3pE-beta-Amyloid 0.6 to 4.5 nM

Control mAb (antibody)
pKd: 10.42
koff: 0.000156 s⁻¹
kon: 4.11e+06 M⁻¹ s⁻¹
